Source: patent publication US20030206865A1, “Conjugates of macrocyclic metal complexes with biomolecules and their use for the production of agents for NMR diagnosis and radiodiagnosis as well as radiotherapy” (Schering AG, priority 2001, published 2003)

Assay: Relaxivity measurement of BSA conjugates in aqueous solution and in plasma
Assay type: physicochemical
Settings: relaxivity per mol of gadolinium, calculated from the measured values, +37° C., 20 MHz
Method: In this example, the relaxivities of the conjugates from Examples 30-38 were compared with the relaxivities of two comparison substances. As comparison substances, Gd-DTPA (1) with the formula: [drawing 16]
and Gd-GlyMeDOTA (2) with the formula: [drawing 17]
which were reacted in each case with bovine serum albumin (BSA), were used.
The measurements were made in each case in aqueous solution and in plasma at +37° C. and a frequency of 20 MHz. The results are summarized in Table 2 below, whereby the indicated relaxivities per mol of gadolinium were calculated from the measured values: […]

## Gd-GlyMeDOTA [Vergleichssubstanz 2, reference compound]
Aqueous solution
  R1 (H2O): 18.3 L/mmol/s
plasma
  R1 (Plasma): 20.8 L/mmol/s
